The results in this text go back to publication PMC8501077 (Nature Communications, 2021).

Data set [1] has as its target FLAG-tagged Sei1∆231-243, locking helix replaced by a flexible linker (S. cerevisiae) (UniProt Q06058). Nature of the data set: cryo-EM structure; single-particle cryo-EM of FLAG-purified protein in DDM/CHS (50 mM Tris.HCl pH7.4, 200 mM NaCl, 1 mM EDTA); C10 symmetry applied.
Data set [2] deals with the molecule itself. The data set is described as above.

The term stoichiometry N denotes the number of molecules, sites or subunits per partner or assembly. In the case of “FLAG-tagged Sei1∆231-243, locking helix replaced by a flexible linker (from UniProt Q06058 1-230; Q06058 244-285) (natural protein)”, the stoichiometry N in data set [1] came out at 10.

B1: C-terminally 3xFLAG tagged Sei1 (yeast Seipin) (natural protein, S. cerevisiae)
chain: MKINVSRPLQFLQWSSYIVVAFLIQLLIILPLSILIYHDFYLRLLPADSSNVVPLNTFNILNGVQFGTKFFQSIKSIPVGTDLPQTIDNGLSQLIPMRDNMEYKLDLNLQLYCQSKTDHLNLDNLLIDVYRGPGPLLGAPGGSNSKDEKIFHTSRPIVCLALTDSMSPQEIEQLGPSRLDVYDEEWLNTIRIEDKISLESSYETISVFLKTEIAQRNLIIHPESGIKFRMNFEQGLRNLMLRKRFLSYIIGISIFHCIICVLFFITGCTAFIFVRKGQEKSKKHS
notes: Sei1, the yeast Seipin, S. cerevisiae; model built for residues 24-132 and 145-265; also called Sei1-FLAG; WT Sei1; source: S. cerevisiae, plasmid-borne, in detergent extract of crude membranes; not shown: 3xFLAG, C-terminal, kept; copies: 10
Take B1: in data set [2], the “stoichiometry N” value is 10.
